Data as given in patent publication US7371842B2, “Polynucleotide encoding a 35 KDA protein thats binds to WF00144” (Astellas Pharma Inc., priority 2002, dated 2008).

Test: Aldol cleavage reaction of fructose 1,6-bisphosphate, coupled with TIM/G3PDH, NADH 340 nm
Type: biochemical
Conditions: F1,6P2 cleaved, 37° C., 30 minutes, pH 8.0
Experimental: The aldolase activity of the human 35 kd protein was determined as follows, according to the method described in a reference (Novel Biochemistry Experiment Lectures, Vol. 15, Metabolism Abnormality, p. 111, edit. Biochemical Society of Japan, publish. Tokyo Kagaku Dojin-sha, Sep. 22, 1992):
Conjugated with triose phosphate isomerase (TIM) and glycerol 3-phosphate dehydrogenase (G3PDH), the aldol cleavage reaction of fructose 1,6-bisphosphate (F1, 6P2) with the 35 kd protein was determined with NADH.
A reaction liquid having the composition mentioned below was prepared, and reacted at 37° C. for 30 minutes. The enzymatic reaction was monitored through the reduction in the 340 nm absorbance owing to the oxidation of NADH in the reaction liquid. The enzymatic reaction was indicated by the number of mols of F1, 6P2, per mg of the protein, cleaved within 1 minute (μmol/min/mg protein).
Reaction liquid 200 μl: 0.25 mM tris HCl buffer (pH 8.0), 0.15 M NaCl, 0.5 mM F1, 6P2 (from Sigma), human 35 kd protein, human liver TIM (500 μg/ml), rabbit skeletal muscle G3PDH (8 units/ml, from Sigma), 0.3 mM NADH (from Nakarai).
For comparison, a commercial product aldolase, Sigma's rabbit skeletal muscle aldolase (A-type aldolase), and an enzyme-free system were tested in the same manner.

Sigma's commercial product aldolase: commercial product aldolase, Sigma's rabbit skeletal muscle aldolase (A-type aldolase)
Aldolase Activity (μmol/min/mg protein): 0.278 μmol/min/mg protein
